Series [1] has as its target T1, rat albumin (Rattus norvegicus, UniProt P02770). In words: Solution Binding ELISA, AB.Fab variants with soluble rat albumin. Also noted: purchased Sigma. The settings on record: Rat Albumin, soluble; Scatchard; average and SD of at least 3 determinations; read-out: Solution Binding ELISA (Kd). In general terms: ELISA stands for enzyme-linked immunosorbent assay.
Series [2] concerns the target T2, rabbit albumin (Oryctolagus cuniculus, UniProt P49065). The experiment in a line: Direct Binding ELISA, AB.Fab variants on immobilized rabbit albumin. Further details: purchased Sigma. The settings on record: average and SD of at least 3 determinations. The method, then: (§1) Mouse, rat, or rabbit albumin (Sigma, St. Louis, Mo.) were immobilized onto NUNC Maxisorp™ 96-well plates at 2 ug/ml overnight at 4° C. […] AB.Fab variants were serially diluted in binding buffer and added at 100 μl per well to the immobilized albumin for 30 minutes at 25° C. Unbound AB.Fab variant was removed by washing wells with 0.05% PBS/Tween® 20 and bound AB.Fab variant was detected with goat anti-human Fab′2-HRP for 1 hour at 25° C. Bound HRP was measured with a solution of tetramethylbenzidine (TMB)/H202. After 15 minutes, the reaction was quenched by the addition of 1M phosphoric acid.
(§2) Initially we explored binding of the AB.Fab variants to immobilized albumin using a Direct Binding ELISA.

The target in series [3] is T3, mouse albumin (Mus musculus, UniProt P07724).
T3 construct: purchased Sigma
The experiment in a line: Direct Binding ELISA, AB.Fab variants on immobilized mouse albumin. The settings on record: average and SD of at least 3 determinations. The method, then:
as §1, §2

Series [4] deals with T1, rat albumin. In words: Direct Binding ELISA, AB.Fab variants on immobilized rat albumin. Also noted: purchased Sigma. The conditions noted are these: average and SD of at least 3 determinations. The method, then:
as §1, §2

The target of series [5] is T1, rat albumin. The settings on record: FIG. 3.
The target of series [6] is T2, rabbit albumin. The settings on record: FIG. 3.
For series [7], the system named is TF and albumin. The experiment in a line: biotin-TF binding assay (fusion on immobilized albumin detected with biotinylated TF). The settings on record: FIG. 8. The text has this: Purified D3H44 fusions retained their ability to bind TF as measured using a FX activation assay (FIG. 5), and a prothrombin time assay that measures prolongation of tissue factor dependent clotting (FIG. 6). The assay methods are described, for example, in Dennis et al., 2000, Nature 404: 465. […] Further, each of the albumin-binding fusions bound TF and albumin simultaneously. […] In this assay, binding of the D3H44 fusions to immobilized albumin was detected with biotinylated TF.

Series [8] can be described thus: Pharmacokinetics of D3H44 variants in rabbits (TF binding ELISA). Further details: V1 Avg (Historical): unit not given here. Format: in vivo, rabbit. The method, then:
D3H44 variants were administered to rabbits as a 0.5 mg/kg bolus injection into the marginal ear vein. Each test group consisted of 3 rabbits (5 rabbits were used in the F(ab′)2 group). Serum samples were taken at the indicated time points, serially diluted, and the concentration of D3H44 was determined using a TF binding ELISA.
Pharmacokinetic analysis was performed using the test article plasma concentrations. Group mean plasma data for each test article conforms to a multi-exponential profile when plotted against the time post-dosing. The data were fit by a standard two-compartment model with bolus input and first-order rate constants for distribution and elimination phases. The general equation for the best fit of the data for i.v. administration was: c(t)=Ae^−αt+[…], where c(t) is the plasma concentration at time t, A and B are intercepts on the Y-axis, and α and β are the apparent first-order rate constants for the distribution and elimination phases, respectively. The α-phase is the initial phase of the clearance and reflects distribution of the protein into all extracellular fluid of the animal, whereas the second or β-phase portion of the decay curve represents true plasma clearance. Methods for fitting such equations are well known in the art. For example, A=D/V(α−k21)/(α−β), B=D/V (β−k21)/(α−β), and α and β (for α>β) are roots of the quadratic equation: r^2+(k12+k21+k10)r+k21k10=0 using estimated parameters of V=volume of distribution, k10=elimination rate, k12=transfer rate from compartment 1 to compartment 2 and k21=transfer rate from compartment 2 to compartment 1, and D=the administered dose.
Data analysis: Graphs of concentration versus time profiles were made using KaleidaGraph (KaleidaGraph™ V. 3.09 Copyright 1986-1997. Synergy Software. Reading, Pa.). Values reported as less than reportable (LTR) were not included in the PK analysis and are not represented graphically. Pharmacokinetic parameters were determined by compartmental analysis using WinNonlin software (WinNonlin® Professional V. 3.1 WinNonlin™ Copyright 1998-1999. Pharsight Corporation. Mountain View, Calif.). Pharmacokinetic parameters were computed as described in Ritschel W A and Kearns G L, 1999, IN: Handbook Of Basic Pharmacokinetics Including Clinical Applications, 5th edition, American Pharmaceutical Assoc., Washington, D.C.

The target of series [9] is T2, rabbit albumin. In words: Phage ELISA, phage clones on immobilized rabbit albumin. Format: binding. Further details: purchased Sigma. The conditions noted are these: phage ELISA. The method, then:
(§3) Phage clones (approximately 10^11 phage) were added to Maxisorp plates coated with rat, rabbit, or human albumin or with mouse, bovine, or rhesus albumin (Sigma), as described above. The microtiter plate was washed with wash buffer and bound phage were detected following incubation with HRP/Anti-M13 Conjugate (Amerisham Pharmacia Biotech, Piscataway, N.J.).

The target in series [10] is T4, human albumin (Homo sapiens, UniProt P02768).
T4 construct: purchased Sigma
In words: Phage ELISA, phage clones on immobilized human albumin. Type of series: binding. The method, then: as §3

For series [11] the following is noted: in vivo; cited from earlier work.
The conditions of series [12]: in vivo; cited from earlier work. This is another data set of the same source.
For series [13] the following is noted: in vivo; cited from earlier work. This is another data set of the same source.
For series [14] the following is noted: in vivo; cited from earlier work. The source holds these as a separate data set.
For series [15], the target named is albumin. In words: SA08b binding assay / competition ELISA, albumin species not stated. The conditions noted are these: albumin species not given.
Where [16] appears, read: Summarized Pk Data (Historical).

Bridges are numbered along the chain shown (N, C = ends). Where no end group is shown, it is not given here.

T1 sequence (P02770 25-608): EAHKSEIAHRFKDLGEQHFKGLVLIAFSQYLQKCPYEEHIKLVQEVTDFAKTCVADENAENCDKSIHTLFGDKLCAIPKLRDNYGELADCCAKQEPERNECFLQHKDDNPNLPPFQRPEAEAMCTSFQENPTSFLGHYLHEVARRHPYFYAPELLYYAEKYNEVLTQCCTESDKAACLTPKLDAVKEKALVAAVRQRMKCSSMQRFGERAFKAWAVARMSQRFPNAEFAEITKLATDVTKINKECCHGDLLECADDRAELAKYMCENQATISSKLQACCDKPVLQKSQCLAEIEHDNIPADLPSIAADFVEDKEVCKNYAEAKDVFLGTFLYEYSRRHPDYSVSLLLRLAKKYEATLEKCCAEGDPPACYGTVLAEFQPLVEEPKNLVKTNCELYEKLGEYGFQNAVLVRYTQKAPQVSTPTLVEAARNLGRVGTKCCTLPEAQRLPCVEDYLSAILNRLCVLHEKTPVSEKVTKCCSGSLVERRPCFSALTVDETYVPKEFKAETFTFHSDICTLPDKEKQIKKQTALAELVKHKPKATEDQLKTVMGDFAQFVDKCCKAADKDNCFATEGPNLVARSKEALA
T2 sequence (P49065 25-608): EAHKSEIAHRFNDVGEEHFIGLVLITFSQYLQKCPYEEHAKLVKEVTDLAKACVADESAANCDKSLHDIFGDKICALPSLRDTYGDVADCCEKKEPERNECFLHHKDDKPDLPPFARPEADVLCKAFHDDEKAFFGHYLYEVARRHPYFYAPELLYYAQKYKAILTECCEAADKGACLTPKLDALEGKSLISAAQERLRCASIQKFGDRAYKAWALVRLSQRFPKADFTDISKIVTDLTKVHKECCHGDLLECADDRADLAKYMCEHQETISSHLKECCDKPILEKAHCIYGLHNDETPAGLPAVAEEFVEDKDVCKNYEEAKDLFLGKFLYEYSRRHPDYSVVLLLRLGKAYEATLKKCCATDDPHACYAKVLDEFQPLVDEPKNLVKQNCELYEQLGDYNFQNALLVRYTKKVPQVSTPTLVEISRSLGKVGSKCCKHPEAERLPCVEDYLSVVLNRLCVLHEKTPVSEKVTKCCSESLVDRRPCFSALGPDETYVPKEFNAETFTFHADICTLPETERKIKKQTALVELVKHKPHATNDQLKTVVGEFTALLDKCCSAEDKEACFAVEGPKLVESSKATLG
T3 sequence (P07724 25-608): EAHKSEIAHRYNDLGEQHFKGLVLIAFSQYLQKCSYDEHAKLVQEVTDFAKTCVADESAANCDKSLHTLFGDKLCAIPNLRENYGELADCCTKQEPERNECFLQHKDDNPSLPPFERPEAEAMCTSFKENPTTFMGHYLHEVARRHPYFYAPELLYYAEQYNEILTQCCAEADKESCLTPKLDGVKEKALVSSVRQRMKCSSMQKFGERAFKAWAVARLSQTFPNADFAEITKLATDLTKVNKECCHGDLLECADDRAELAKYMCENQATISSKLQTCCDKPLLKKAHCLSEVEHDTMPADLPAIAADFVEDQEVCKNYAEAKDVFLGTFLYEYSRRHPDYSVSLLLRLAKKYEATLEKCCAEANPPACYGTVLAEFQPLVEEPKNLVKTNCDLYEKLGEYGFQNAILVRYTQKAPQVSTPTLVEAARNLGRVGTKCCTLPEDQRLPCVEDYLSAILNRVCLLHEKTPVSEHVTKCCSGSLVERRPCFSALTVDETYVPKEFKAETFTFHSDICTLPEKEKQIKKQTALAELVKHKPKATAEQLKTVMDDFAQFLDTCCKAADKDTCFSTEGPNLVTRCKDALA

With “4D5-H11: AB.Fab variant made by deletion in 4D5-H4 (Table 12) (DICLPRWGCL; disulfide 3-9 (inferred); also: part of Fab heavy chain)”, the Kd (as a rule, the concentration at which binding is half-saturated) in series [1] amounted to 2430 ± 320 nM. For the same molecule, the EC50 (usually the midpoint of the concentration-response curve) was greater than 2000 nM in series [2], greater than 2000 nM in series [3] and greater than 1000 nM in series [4].

For `CC[C@H](C)[C@H](NC(=O)[C@H](CC(C)C)NC(=O)CNC(=O)[C@H](CCC(N)=O)NC(C)=O)C(=O)NCC(=O)N[C@@H](CC(=O)O)C(=O)N[C@H](C(=O)N[C@H]1CSSC[C@@H](C(=O)N[C@@H](CC(C)C)C(=O)N[C@@H](Cc2c[nH]c3ccccc23)C(=O)NCC(=O)N[C@@H](CC(=O)O)C(=O)N[C@@H](CO)C(=O)N[C@H](C(=O)N[C@@H](CCCCN)C(N)=O)C(C)C)NC(=O)CNC(=O)[C@H](Cc2c[nH]c3ccccc23)NC(=O)[C@H](CCCNC(=N)N)NC(=O)[C@@H]2CCCN2C(=O)[C@H](CC(C)C)NC1=O)[C@@H](C)CC` [SA08], the “inhibition of RD phage binding to rat albumin” value in [5] is “clearly blocked”. Further, the “inhibition of BA phage binding to rabbit albumin” value in series [6] was “clearly blocked”.

Consider “D3H44-Fab: Fab fragment of D3H44, a humanized antibody that binds human tissue factor (TF)”, for which, in series [7], the “simultaneous binding of TF and albumin” value was “did not bind albumin”. In series [8] (setting [16]), the “AUC Avg (Historical)” value is 9800 ng·h/mL, the “AUC/Dose Avg (Historical)” value was 19.7 (hr * ug/mL)(/(mg/kg), the “CL Avg (Historical)” value turned out to be 0.863 mL/min/kg and the “K10-HL Avg (Historical)” value is on record as 0.760 hr. Besides, in series [8] (setting [16]), the “V1 Avg (Historical)” value is 55.9 and the “Vss Avg (Historical)” value was 0.127 L/kg. Further, in series [8] (rabbit, 0.5 mg/kg bolus i.v.), the “AUC Avg” value was determined as 5860 ng·h/mL, the “AUC/Dose Avg” value was 14.8 (hr * ug/mL)/(mg/kg), the “Cmax Avg” value stood at 5000 ng/mL and the “MRT Avg” value is 3.07 h. Besides, in series [8] (rabbit, 0.5 mg/kg bolus i.v.), the “V1* Avg (initial distribution volume)” value is 0.0906 L/kg.

Take “QRQMVDFCLPQWGCLWGDGF [RB, phage clone selected on rat SA, ID 35]”: the “binding to rabbit albumin” value in series [9] is “capable of binding”. Besides, in [10], the “binding to human albumin” value is listed as “capable of binding”.

As to albumin, the half-life in mouse in series [11] was 24 h. Also, the half-life in rat in series [12] was 45.6 h. Besides, the half-life in rabbit in series [13] was 133 h. Besides, in [14], the half-life in man was 456 h.

On to “linear peptide, identical to SA06, but having both Cys residues altered to Ala: linear peptide, identical to SA06, but having both Cys residues altered to Ala (LEYEDIALPKWGALWGGE)”, for which, in series [15], the IC50 (in general, the midpoint of a concentration-inhibition curve) is greater than 50000 nM.
